Target: T1, chemokine receptor CCR5 (human, UniProt P51681 1-352)
T1 construct: whole, on cells
Test: ^125I-MIP-1β binding to human monocytes, displacement by unlabeled MIP-1β
Experimental: After incubation, the cells were washed with DPBS and centrifuged through a 10% sucrose/DPBS cushion. The tips of tubes containing cell pellets were cut and the cell-associated radioactivity was determined in a gamma counter. The results were presented as counts per minute (cpm) on 2×10⁶ monocyte and were representative of at least three experiments performed.

T1 sequence (P51681 whole entry): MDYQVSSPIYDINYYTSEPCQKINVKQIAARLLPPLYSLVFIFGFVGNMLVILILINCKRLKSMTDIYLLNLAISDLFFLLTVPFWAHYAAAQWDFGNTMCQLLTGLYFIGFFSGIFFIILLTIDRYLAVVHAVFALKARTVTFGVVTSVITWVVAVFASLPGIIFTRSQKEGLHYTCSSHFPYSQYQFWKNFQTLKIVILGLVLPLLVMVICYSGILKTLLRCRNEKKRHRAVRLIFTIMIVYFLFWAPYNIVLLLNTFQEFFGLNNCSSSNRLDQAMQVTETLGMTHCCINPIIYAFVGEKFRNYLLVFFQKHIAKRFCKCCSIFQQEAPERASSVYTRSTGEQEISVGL

B1: MIP-1β (ligand, human, UniProt P13236 24-92, looked up)
chain: APMGSDPPTACCFSYTARKLPRNFVVDYYETSSLCSQPAVVFQTKRSKQVCADPSESWVQEYVYDLELN
notes: also called MIP-1beta
Question: Does B1 bind?
Answer: Result: binds

From patent US20030147883A1 (US Dept. of Health and Human Services, published 2003)
